Paper PMC3472097 (Structure (London, England : 1993), 2012)

B1: NIPP1 PP1-binding domain, residues 158-216 (domain or fragment, UniProt Q12972 158-216, looked up)
chain: EEETELDNLTEFNTAHNKRISTLTIEEGNLDIQRPKRKRKNSRVTFSEDDEIINPEDVD
B2: nuclear inhibitor of PP1 (NIPP1), residues 1-225 (FHA domain and PP1-binding domain) (domain or fragment, UniProt Q12972 1-225, looked up)
chain: MAAAANSGSSLPLFDCPTWAGKPPPGLHLDVVKGDKLIEKLIIDEKKYYLFGRNPDLCDFTIDHQSCSRVHAALVYHKHLKRVFLIDLNSTHGTFLGHIRLEPHKPQQIPIDSTVSFGASTRAYTLREKPQTLPSAVKGDEKMGGEDDELKGLLGLPEEETELDNLTEFNTAHNKRISTLTIEEGNLDIQRPKRKRKNSRVTFSEDDEIINPEDVDPSVGRFRNM
B3: NIPP1 PP1-binding domain, residues 144-225 (domain or fragment, UniProt Q12972 144-225, looked up)
chain: GGEDDELKGLLGLPEEETELDNLTEFNTAHNKRISTLTIEEGNLDIQRPKRKRKNSRVTFSEDDEIINPEDVDPSVGRFRNM

What follows are binders tested against protein phosphatase 1 alpha (PP1α), residues 7-330, recombinant (UniProt P62136 7-330) (assay: ITC).
protein phosphatase 1 alpha (PP1α), residues 7-330, recombinant, sequence (P62136 7-330): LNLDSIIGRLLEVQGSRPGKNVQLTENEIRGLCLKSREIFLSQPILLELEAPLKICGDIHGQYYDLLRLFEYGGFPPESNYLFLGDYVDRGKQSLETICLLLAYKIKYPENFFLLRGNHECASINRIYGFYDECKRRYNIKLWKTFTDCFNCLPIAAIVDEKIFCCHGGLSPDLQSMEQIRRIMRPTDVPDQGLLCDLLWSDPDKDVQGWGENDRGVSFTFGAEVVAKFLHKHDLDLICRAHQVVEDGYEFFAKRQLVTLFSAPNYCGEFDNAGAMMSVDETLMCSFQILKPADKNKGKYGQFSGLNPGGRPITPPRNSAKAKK

Kd [nM] | Binder
104 | B1
17.8 | B2
73 | B3
